Measurements as given in US20250145722A1 (TRUEBINDING, published 2025).

Legend:
[1] = biological target: T1, human Galectin-3 (Gal3), full-length recombinant (human, UniProt P17931 2-250); assay: blocking ELISA, Gal3 coated, biotin-α-synuclein aggregates
T1 construct: treated here as one molecule; also called hGAL3; hGal3
Method: (§1) The plate was incubated for an hour at room temperature with gentle rocking. Thereafter, the plate was washed three times with PBST. […] The plate was incubated at room temperature for an hour with gentle rocking and then washed three times with PBST.

[2] = biological target: T1, human Galectin-3 (Gal3), full-length …; assay: blocking ELISA, Gal3 coated, biotin-APP695
[3] = biological target: T1, human Galectin-3 (Gal3), full-length …; assay: blocking ELISA, Gal3 coated, biotin-Tau aggregates
Method: as §1

[4] = biological target: T1, human Galectin-3 (Gal3), full-length …; assay: blocking ELISA, Gal3 coated, TREM2-His
Method: The plate was incubated for an hour at room temperature with gentle rocking. Thereafter, the plate was washed three times with PBST. Anti-6× His tag antibody-HRP (Abcam, ab1269) was then added to the wells at 1:3000 dilution in 2% BSA in PBST. The plate was incubated at room temperature for an hour with gentle rocking and then washed three times with PBST.

[5] = biological target: T1, human Galectin-3 (Gal3), full-length …; assay: blocking ELISA, Gal3 coated, biotin-Abeta42 peptide
[6] = biological target: T1, human Galectin-3 (Gal3), full-length …; assay: blocking ELISA, Gal3 coated, biotin-TLR4
[7] = biological target: T1, human Galectin-3 (Gal3), full-length …; assay: not stated. Exponent is printed without a minus sign; value taken as a negative power of ten because the column is a KD in M
[8] = biological target: T1, human Galectin-3 (Gal3), full-length …; assay: blocking ELISA, Gal3 coated, biotin-Abeta42 oligomer
[9] = biological target: T1, human Galectin-3 (Gal3), full-length …; assay: cell-based or functional assay
[10] = biological target: T1, human Galectin-3 (Gal3), full-length …; assay: SPR (Carterra LSA, HC30M chip with Protein A/G, receptor-Fc captured, Gal3 0-128 nM as analyte, 25 °C)
Method: Briefly, kinetics experiment was performed on Caterra LSA at 25° C. A HC30M chip was immobilized with recombinant Protein A/G.
The complex was allowed to associate and dissociate for 300 s and 240 s, respectively. Eight cycles of kinetics were done sequentially for the dilution series.

T1 sequence (P17931 2-250 limits assumed): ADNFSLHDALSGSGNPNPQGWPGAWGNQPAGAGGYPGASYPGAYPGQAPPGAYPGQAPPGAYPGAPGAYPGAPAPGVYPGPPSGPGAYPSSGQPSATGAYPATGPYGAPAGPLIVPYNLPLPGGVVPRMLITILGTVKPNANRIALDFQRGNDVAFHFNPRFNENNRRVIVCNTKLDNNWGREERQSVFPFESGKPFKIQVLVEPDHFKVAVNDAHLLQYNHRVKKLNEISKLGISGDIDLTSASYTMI

Binder | % blocking of Gal3-α-synuclein aggregates binding [1] [%] | % blocking of Gal3-APP695 binding [2] [%] | % blocking of Gal3-Tau aggregates binding [3] [%] | % blocking of Gal3-TREM2 binding [4] [%] | % blocking of Gal3-Abeta42 peptide binding [5] [%] | % blocking of Gal3-TLR4 binding [6] [%] | Kd [7] [nM] | % blocking of Gal3-Abeta42 oligomer binding [8] [%] | decrease in TGFβ induction of ColA1 mRNA in LX2 cells (qRT-PCR) [9] [%] | Kd [10] [nM] | koff [10] [s⁻¹] | kon [10] [M⁻¹ s⁻¹]
15G7.2A7 (antibody, human IgG4 S228P, kappa, V domains shown, also called 15FG7.2A7) VH: EVQLQQSGPELVKPGASVKISCKASGYTFTDYYMNWVKQSHGKSLEWIGDINPNNGGTNYNQKFKGKATLTVDKSSSTAYMELRSLTSEDSAVYYCTSGYGFPYWGQGTLVTVSA VL: DIQMNQSPSSLSASLGDTISITCRASQNINIWLSWYQQKPGNIPQLLIYKASNLHTGVPSRFSGSGSGTDFTLTISSLQPEDIATYYCLQGQSYPLTFGAGTKLVMKR | > 90 | > 90 | > 90 | > 90 | > 90 | > 90 | – | – | – | – | – | –
F847C.11B1 (antibody, human IgG4 S228P, kappa, V domains shown, also called 847.11B1) VH: EVQLQQSGPELVKPGASVKISCKASGNTFTDHNMHWVKQSHGKSLEWIGYIYPYNGGTGYNQKFKSKATLTVDNSSSTVYMELRSLTSEDSAVYYCARGEYDYLAWFAYWGQGTLVTVSA VL: EIVLTQSPASLSVTTGEKVTIRCITSIDIDDDMNWYQQKPGEPPKLLISEGNTLRPGVPSRFSSSGYGTDFVFTIENTLSEDVADYYCLQSDNKPLTFGAGTKLELKR | < 50 | – | < 50 | < 47 | < 46 | – | 4.29 | < 26 | – | – | – | –
F846C.1F5 (antibody, human IgG4 S228P, kappa, V domains shown, also called 846.1F5) VH: QIQLVQSGPELKKPGETVKISCKASGYTFTNYGMNWVKQAPGKGLKWMGWINTYTGEPSYADDFKGRFAFSLETSASTAYLQINNLKNEDMATYFCARWGGYDGDYYAMDYWGQGTSVTVSS VL: NIMMTQSPSSLAVSAGEKVTMSCKSSQSVLYSSNQKNYLAWYQQKPGQSPKLLIYWASTRESGVPDRFTGSGSGTDFTLTISSVQPEDLAVYYCHQYLSSLTFGAGTKLELKR | – | > 90 | > 90 | > 90 | > 90 | > 90 | 1.63 | > 90 | – | – | – | –
F846C.1B2 (antibody, human IgG4 S228P, kappa, V domains shown, also called 846.1B2) VH: QIQLVQSGPELKKPGETVKISCKASGYTFTNYGMNWVKQAPGKGLKWMGWINTYTGEPSYADDFKGRFAFSLETSASTAYLQINNLKNEDMATYFCARWGGYAGDYYAMDFWGQGTSVTVSS VL: NIWLTQSPSSLAVSAGEMVTMTCKSSQSVLYSSNQKNYLAWYQQKPGQSPKLLIYWASTRESGVPDRFTGSGSGTDFSLTISSVQAEDLAVYYCHQYLSSLTFGAGTKLELKR | – | > 90 | > 90 | > 90 | > 90 | > 90 | 5.74 | – | – | – | – | –
4A11.2B5 (antibody, human IgG4 S228P, kappa, V domains shown) VH: QVQLQQSGPELVKPGASVKISCKASGYSFTNYYIHWVKQRPGQGLEWIGWIYPGSGNTNYNEKFKGKATLTADTSSSTTNMQLSSLTSEDSAVYYCSTAPGGFDVWGSGTTVTVSS VL: DIVMTQAAFSNPVTLGTSASISCRSSKSLLHSDGITYLYWYLQRPGQSPQLLIYRMSNLASGVPDRFSGSGSGTDFTLRISRVEAEDVGVYYCAQMLEFPLTFGAGTKLELKR | – | – | – | – | – | – | – | – | 58 | – | – | –
recombinant human TGF-beta sRII/Fc (R&D Systems, 341-BR) (Fc fusion, UniProt P37173 24-159, looked up, not shown: a dimerising Fc or GST, also called TGFβ R2; TGFBR2) IPPHVQKSVNNDMIVTDNNGAVKFPQLCKFCDVRFSTCDNQKSCMSNCSITSICEKPQEVCVAVWRKNDENITLETVCHDPKLPYHDFILEDAASPKCIMKEKKKPGETFFMCSCSSDECNDNIIFSEEYNTSNPD | – | – | – | – | – | – | – | – | – | 725 | 0.0837 | 116000
F847C.10B9 (antibody, human IgG4 S228P, kappa, also called 847.10B9) heavy: not shown light: DIRMTQSPSSLSASLGDTITITCHASQNINVWLSWYQQKPGNIPKLLIYKASNLHTGVPSRFSGSGSGTGFTLTISSLQPEDIATYYCQQGQSYPYTFGGGTKLELKRTVAAPSVFIFPPSDEQLKSGTASVVCLLNNFYPREAKVQWKVDNALQSGNSQESVTEQDSKDSTYSLSSTLTLSKADYEKHKVYACEVTHQGLSSPVTKSFNRGEC | > 90 | – | > 90 | – | – | – | 13600 | – | – | – | – | –
F847C.12F12 (antibody, V domains shown, also called 84712F12) VH: QIQLVQSGPELKKPGETVKISCKASGYTFTNYGMNWVKQAPGKGLKWMGWINTYTGEPTYVDDFKGRFAFSLETSASTAYLRINNLKNEDTATYFCAKFGNYVGAMDYWGQGTSVTVSS VL: DIQVIQSPSSLSASLGDTITITCHASQNINVWLSWYQQKPGNIPKLLIYKASNLHTGVPSRFSGSGSGTGFTLTISSLQPEDIATYYCQQGQSYPYTFGGGTKLELKR | > 90 | – | > 90 | – | – | – | 19.2 | – | – | – | – | –
F846TC.14E4 (antibody, human IgG4 S228P, kappa, V domains shown, also called 846T.14E4) VH: QVTLKESGPGILQPSQTLSLTCSFSGFSLSTSGMGVGWIRQPSGKGLEWLAHIWWDDDKYYNTALKSGLTISKDASKNQVFLKIASMDTADTATYYCARNLYDGSYGYYAMDYWGQGTSVTVSS VL: DIVMTQAAFSNPVTLGTSASISCRSSKSLLHTNGITFLYWYLQKPGQSPQPLIYQMSNLASGVPDRFSSSGSGTDFTLRISRVEAEDVGVYYCAQNLELPWTFGGGTKLEINR | – | > 90 | – | > 90 | > 90 | > 90 | 0.556 | > 90 | – | – | – | –
recombinant human TGF-beta RI/ALK-5 Fc chimera protein (R&D Systems, 3025-BR) (Fc fusion, UniProt P36897 24-125, looked up, not shown: a dimerising Fc or GST, also called TGFβ RI; TGFBR1) AAALLPGATALQCFCHLCTKDNFTCVTDGLCFVSVTETTDKVIHNSMCIAEIDLIPRDRPFVCAPSSKTGSVTTTYCCNQDHCNKIELPTTVKSSPGLGPVE | – | – | – | – | – | – | – | – | – | 314 | 0.0351 | 112000
19B5.2E6 (antibody, mouse IgG2a, V domains shown) VH: QIQLVQSGPELKKPGETVKISCKASGYTFTTYAMSWVKQAPGKGLKWMGWINTYSGVPTYADDLKGRFAFSLETSASTAYLQINNLKNEDTATYFCARGPYAMDYWGQGTSVTVSS VL: DIQMTQTTSSLSASLGDRVTISCSASQGINNYLNWYQQKPDGTVKLLIYYASSLHSGVPSRFSGSGSGTDYSLTISNLEPEDIATYYCQQYSQVPYTFGSGTKLEIKR | – | > 90 | – | > 90 | > 90 | > 90 | – | > 90 | 85 | – | – | –
23H9.2E4 (antibody, V domains shown) VH: QIQLVQSGPELKKPGETVKISCKASGYTFTTYAMSWVKQAPGKGLKWMGWINTYSGVPTYADDLKGRFAFSLETSASTAYLQINNLKNEDTATYFCARGPYAMDYWGQGTSVTVSS VL: DIQMTQTTSSLSASLGDRVTISCSASQGINNYLNWYQQKPDGTVKLLIYYASSLHSGVPSRFSGSGSGTDYSLTISNLEPEDIATYYCQQYSQVPYTFGSGTKLEIK | – | – | – | > 90 | < 46 | > 90 | – | < 26 | – | – | – | –
F846TC.14A2 (antibody, human IgG4 S228P, kappa, V domains shown, also called 846T.14A2; 846.14A2) VH: QIQLVQSGPELKKPGETVKISCKASGYTFTNYGMNWVKQAPGKGLKWMGWINTYTGEPTYAGDLKGRFAFSLETSASTAYLQINNLKNEDTATYFCVRYTMDYWGQGTSVTVSS VL: QAVVTQESALTTSPGETVTLTCRSSTGAVTTSNYANWVQEKPDHLFTGLIGGINNRVPGVPARFSGSLIGDKAALTITGAQTEDEAIYFCALWYSNHWVFGGGTKLTVLR | – | > 90 | – | – | > 90 | > 90 | 3.26 | > 90 | – | – | – | –
F847C.4B10 (antibody, human IgG4 S228P, kappa, V domains shown) VH: EVQLVETGGGLVKPGGSLKLSCAASGFTFSSYAMSWVRQTPEKRLEWVASISSGGSTYYPDSVKGRFTISRDNARNILYLQMSSLRSEDTAMYYCTRFTTVVEMDYWGQGTSVTVSS VL: QAVVTQESALTTSPGETVTLTCRSSTGAVTTSNYANWVQEKPDHLFTGLIGGTNNRAPGVPARFSGSLIGDKAALTITGAQTEDEAIYFCALWYSNHLVFGGGTKLTVLR | – | > 83 | – | – | – | – | 21.5 | < 26 | – | – | – | –
